Laboratory results as given in the supplement of paper PMC10567573.

B1: LOXL2 (parent)
chain: RLLRFSSQIHNNGQSDFRPKNGRH

Variants of: B1
Experiment: protein stability index of a GFP-peptide fusion (GPS, HEK-293T) (PSI 1-6); higher = more stable
Conditions: c terminus: a fixed tail appended
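Note: lentivirally expressed fusions sorted by FACS into six bins by GFP to DsRed ratio, PSI derived from sequencing read proportions per bin multiplied by bin number.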

Variant | protein stability index
RLLRFSSVIHNNGQSDFRPKNGRH | 2.95
RLLRFSSWIHNNGQSDFRPKNGRH | 1.77
RLLRFSSYIHNNGQSDFRPKNGRH | 2.05
RLLRFSSQAHNNGQSDFRPKNGRH | 2.81
RLLRFSSQCHNNGQSDFRPKNGRH | 3.11
RLLRFSSQDHNNGQSDFRPKNGRH | 3.5
RLLRFSSQEHNNGQSDFRPKNGRH | 3.93
RLLRFSSQFHNNGQSDFRPKNGRH | 2.32
RLLRFSSQGHNNGQSDFRPKNGRH | 3.48
RLLRFSSQHHNNGQSDFRPKNGRH | 3.26
RLLRFSSQKHNNGQSDFRPKNGRH | 2.31
RLLRFSSQLHNNGQSDFRPKNGRH | 2.12
RLLRFSSQMHNNGQSDFRPKNGRH | 3.07
RLLRFSSQNHNNGQSDFRPKNGRH | 3.19
RLLRFSSQPHNNGQSDFRPKNGRH | 3.44
RLLRFSSQQHNNGQSDFRPKNGRH | 3.14
RLLRFSSQRHNNGQSDFRPKNGRH | 3.24
RLLRFSSQSHNNGQSDFRPKNGRH | 3.04
RLLRFSSQTHNNGQSDFRPKNGRH | 3.14
RLLRFSSQVHNNGQSDFRPKNGRH | 2.99
RLLRFSSQWHNNGQSDFRPKNGRH | 2.74
RLLRFSSQYHNNGQSDFRPKNGRH | 2.4
RLLRFSSQIANNGQSDFRPKNGRH | 3.28
RLLRFSSQICNNGQSDFRPKNGRH | 2.46

Variant | protein stability index
RLLRFSSQIDNNGQSDFRPKNGRH | 3.68
RLLRFSSQIENNGQSDFRPKNGRH | 3.43
RLLRFSSQIFNNGQSDFRPKNGRH | 2.13
RLLRFSSQIGNNGQSDFRPKNGRH | 2.57
RLLRFSSQIINNGQSDFRPKNGRH | 2.24
RLLRFSSQIKNNGQSDFRPKNGRH | 2.8
RLLRFSSQILNNGQSDFRPKNGRH | 2.14
RLLRFSSQIMNNGQSDFRPKNGRH | 2.47
RLLRFSSQINNNGQSDFRPKNGRH | 3.06
RLLRFSSQIPNNGQSDFRPKNGRH | 3.12
RLLRFSSQIQNNGQSDFRPKNGRH | 2.83
RLLRFSSQIRNNGQSDFRPKNGRH | 2.36
RLLRFSSQISNNGQSDFRPKNGRH | 2.71
RLLRFSSQITNNGQSDFRPKNGRH | 2.89
RLLRFSSQIVNNGQSDFRPKNGRH | 2.68
RLLRFSSQIWNNGQSDFRPKNGRH | 2.13
RLLRFSSQIYNNGQSDFRPKNGRH | 1.87
RLLRFSSQIHANGQSDFRPKNGRH | 2.84
RLLRFSSQIHCNGQSDFRPKNGRH | 2.17
RLLRFSSQIHDNGQSDFRPKNGRH | 3.29
RLLRFSSQIHENGQSDFRPKNGRH | 2.86
RLLRFSSQIHFNGQSDFRPKNGRH | 2.23
RLLRFSSQIHGNGQSDFRPKNGRH | 2.23
RLLRFSSQIHHNGQSDFRPKNGRH | 2.8

Variant | protein stability index
RLLRFSSQIHINGQSDFRPKNGRH | 2.39
RLLRFSSQIHKNGQSDFRPKNGRH | 2.29
RLLRFSSQIHLNGQSDFRPKNGRH | 2.69
RLLRFSSQIHMNGQSDFRPKNGRH | 2.81
RLLRFSSQIHPNGQSDFRPKNGRH | 2.65
RLLRFSSQIHQNGQSDFRPKNGRH | 2.46
RLLRFSSQIHRNGQSDFRPKNGRH | 2.2
RLLRFSSQIHSNGQSDFRPKNGRH | 2.54
RLLRFSSQIHTNGQSDFRPKNGRH | 2.7
RLLRFSSQIHVNGQSDFRPKNGRH | 4.07
RLLRFSSQIHWNGQSDFRPKNGRH | 2.51
RLLRFSSQIHYNGQSDFRPKNGRH | 2.17
RLLRFSSQIHNAGQSDFRPKNGRH | 2.89
RLLRFSSQIHNCGQSDFRPKNGRH | 2.36
RLLRFSSQIHNDGQSDFRPKNGRH | 3.69
RLLRFSSQIHNEGQSDFRPKNGRH | 2.57
RLLRFSSQIHNFGQSDFRPKNGRH | 1.74
RLLRFSSQIHNGGQSDFRPKNGRH | 3.16
RLLRFSSQIHNHGQSDFRPKNGRH | 2.59
RLLRFSSQIHNIGQSDFRPKNGRH | 2.27
RLLRFSSQIHNKGQSDFRPKNGRH | 2.65
RLLRFSSQIHNLGQSDFRPKNGRH | 2.15
RLLRFSSQIHNMGQSDFRPKNGRH | 2.36
RLLRFSSQIHNPGQSDFRPKNGRH | 3.15

Variant | protein stability index
RLLRFSSQIHNQGQSDFRPKNGRH | 2.57
RLLRFSSQIHNRGQSDFRPKNGRH | 2.52
RLLRFSSQIHNSGQSDFRPKNGRH | 3.25
RLLRFSSQIHNTGQSDFRPKNGRH | 2.72
RLLRFSSQIHNVGQSDFRPKNGRH | 2.87
RLLRFSSQIHNWGQSDFRPKNGRH | 2.55
RLLRFSSQIHNYGQSDFRPKNGRH | 2.39
RLLRFSSQIHNNAQSDFRPKNGRH | 2.48
RLLRFSSQIHNNCQSDFRPKNGRH | 1.97
RLLRFSSQIHNNDQSDFRPKNGRH | 3.19
RLLRFSSQIHNNEQSDFRPKNGRH | 3.31
RLLRFSSQIHNNFQSDFRPKNGRH | 2.25
RLLRFSSQIHNNHQSDFRPKNGRH | 3.06
RLLRFSSQIHNNIQSDFRPKNGRH | 2.31
RLLRFSSQIHNNKQSDFRPKNGRH | 2.15
RLLRFSSQIHNNLQSDFRPKNGRH | 2.39
RLLRFSSQIHNNMQSDFRPKNGRH | 2.81
RLLRFSSQIHNNNQSDFRPKNGRH | 2.94
RLLRFSSQIHNNPQSDFRPKNGRH | 2.62
RLLRFSSQIHNNQQSDFRPKNGRH | 3.2
RLLRFSSQIHNNRQSDFRPKNGRH | 3.19
RLLRFSSQIHNNSQSDFRPKNGRH | 2.46
